Data as given in patent US7629169B2, “Methods for the production of platelet-derived growth factor-responsive neural precursor cells” (Stem Cell Therapeutics Corp., priority 2004, dated 2009).

B1: CNTF: ciliary neurotrophic factor (protein, UniProt P26441 1-200, looked up)
Ciliary neurotrophic factor: MAFTEHSPLTPHRRDLCSRSIWLARKIRSDLTALTESYVKHQGLNKNINLDSADGMPVASTDQWSELTEAERLQENLQAYRTFHVLLARLLEDQQVHFTPTEGDFHQAIHTLLLQVAAFAYQIEELMILLEYKIPRNEADGMPINVGDGGLFEKKLWGLKVLQELSQWTVRSIHDLRFISSHQTGIPARGSHYIANNKKM
B2: BDNF: brain-derived neurotrophic factor (protein, UniProt P23560 19-247, looked up)
Neurotrophic factor BDNF …: APMKEANIRGQGGLAYPGVRTHGTLESVNGPKAGSRGLTSLADTFEHVIEELLDEDQKVRPNEENNKDADLYTSRVMLSSQVPLEPPLLFLLEEYKNYLDAANMSMRVRRHSDPARRGELSVCDSISEWVTAADKKTAVDMSGGTVTVLEKVPVSKGQLKQYFYETKCNPMGYTKEGCRGIDKRHWNSQCRTTQSYVRALTMDSKKRIGWRFIRIDTSCVCTLTIKRGR
B3: NT-3: neurotrophin-3 (protein, UniProt P20783 139-257, looked up)
Neurotrophin-3: YAEHKSHRGEYSVCDSESLWVTDKSSAIDIRGHQVTVLGEIKTGNSPVKQYFYETRCKEARPVKNGCRGIDDKHWNSQCKTSQTYVRALTSENNKLVGWRWIRIDTSCVCALSRKIGRT

Columns and labels:
[1] = tested on: PDGF-generated neurospheres; assay: Differentiation of primary PDGF-AA-generated neurospheres, immunocytochemistry; format: cell-based, mouse
[2] = tested on: PDGF-responsive neural precursors (PRPs) from dissociated E14 MGE/LGE; assay: Primary neurosphere generation from dissociated E14 ganglionic eminences; format: cell-based, mouse; conditions: for neurosphere size / number of neurospheres produced: neurotrophin in the presence of PDGF
Protocol: Cell culture. The culture medium (MHM) was composed of DMEM/F-12 (1:1) including HEPES buffer (5 mM), glucose (0.6%), sodium bicarbonate (3 mM), glutamine (2 mM), insulin (25 μg/ml), transferrin (100 μg/ml), progesterone (20 nM), putrescine (10 μM), and sodium selenite (30 nM; all from Sigma, St. Louis, Mo., except glutamine from Invitrogen, Carlsbad, Calif.). The lateral, medial, or both ganglionic eminences (LGE, MGE or both) were removed from Embryonic Day 14 (E14) mouse embryos and mechanically dissociated with a fire-polished Pasteur pipette in MHM. Cells were plated at a density of […] unless otherwise indicated.
For neurosphere generation, PDGF-AA (100 ng/ml; Peprotech, Rocky Hill, N.J.), PDGF-BB (100 ng/ml; Peprotech), EGF (20 ng/ml; Peprotech), FGF2 (20 ng/ml; R&D [Minneapolis, Minn.])+heparan sulfate (2 μg/ml; HS; R&D), SHH (2 ug/ml; R&D), cyclopamine (5 μM; Toronto Research Chemicals, North York, Ontario), and/or DMSO (0.1%; carrier) was added to the MHM. MHM used to generate neurospheres also contained 2% B27 (Invitrogen).
[…] is one of the earliest markers of OLPs, and signaling by PDGF-AA is required for the generation of most oligodendrocytes (Fruttiger et al., Development 126:457 (1999)). Increasing concentrations of PDGF-AA were used to determine whether stimulation of dissociated E14 medial and lateral ganglionic eminences. (MGE and LGE, respectively) results in generation of neurospheres. The neurosphere assay was used because manipulation of primary cells is minimal compared to the immunopanning procedures used to isolate O-2A progenitors.
The effect of brain-derived neurotrophic factor (BDNF), neurotrophin-3 (NT-3), and nerve growth factor (NGF) on PRPs was determined. Cells were cultured as previously reported (Chojnacki et al., J Neurosci 24(48):10888 2004) in the presence of various combinations of PDGF, brain-derived neurotrophic factor (BDNF), NT-3, nerve growth factor (NGF), and the effects on neurosphere generation characterized. MHM is the defined medium used in cultures without growth factor.

[3] = tested on: PDGFRα-labeled cells (PRPs); assay: PDGFRα and Tunel staining of dissociated primary cells, 24 hours; format: cell-based
Protocol: Dissociated primary cells were cultured in 24-well plates with or without NT-3 for 24 hours, stained for PDGFRα and Tunel, and the number of labeled cells counted.

Molecule	GFAP-immunoreactive cells (astrocytes) ([1]; 2 DIV differentiation)	OLIG2 / O4 expression ([1]; 6 DIV PDGF-generated neurospheres differentiated 2 DIV)	neurosphere size [2]	number of neurospheres produced [2]	generation of neurospheres by timing of treatment ([2]; initial 24 hour NT-3 vs exposure after first 24 hours)	Tunel and PDGFRα co-labeled cells ([3]; with or without NT-3, 24 hours)	PDGFRα-labeled cells ([3]; with vs without NT-3, 24 hours)
B1	did not induce GFAP expression	no effect on OLIG2 or O4 expression	–	–	–	–	–
B2	–	–	promote the generation of larger neurospheres	more neurospheres are produced	–	–	–
B3	–	–	promote the generation of larger neurospheres	more neurospheres are produced	more effective at promoting the generation of neurospheres than continued exposure to NT-3 after the first 24 hours	no Tunel and PDGFRα co-labeled cells were observed	more PDGFRα-labeled cells
